Experimental data from US20230109780A1 (XIYUAN ANJIAN MEDICINE SHANGHAI, published 2023).

T1: human NT-4 (human, UniProt P34130 81-210)
T1 construct: Bought protein; also called Neurotrophic factor-4
T1 sequence (looked up): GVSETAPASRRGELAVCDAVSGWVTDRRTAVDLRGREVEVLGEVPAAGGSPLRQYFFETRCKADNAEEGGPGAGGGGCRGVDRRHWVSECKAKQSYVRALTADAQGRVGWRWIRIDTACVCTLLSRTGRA

T2: human BDNF (human, UniProt P23560 129-247)
T2 construct: Bought protein; also called Brain-Derived Neurotrophic Factor
T2 sequence (looked up): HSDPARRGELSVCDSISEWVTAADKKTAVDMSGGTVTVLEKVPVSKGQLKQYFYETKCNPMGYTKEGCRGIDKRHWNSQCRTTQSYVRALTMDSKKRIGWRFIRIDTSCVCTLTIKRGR

T3: human NT-3 (human, UniProt P20783 139-257)
T3 construct: Bought protein; also called Neurotrophic factor-3
T3 sequence (looked up): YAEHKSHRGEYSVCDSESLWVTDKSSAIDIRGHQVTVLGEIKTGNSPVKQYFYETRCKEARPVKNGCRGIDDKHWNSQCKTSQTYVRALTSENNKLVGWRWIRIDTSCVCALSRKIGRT

B1: murine anti-human NGF monoclonal antibody 43E5 (antibody, V domains shown)
VH: QVQLQQSGAELVRPGASVTLSCKASGYTFTDYEMHWVRQTPVHGLEWIGAIDPETGGTAYNQKFKGKATLTADKSSSTAYMELRSLTSEDSAVYYCRRGANLNHYGNDEGSYWGQGTLVTVSA
VL: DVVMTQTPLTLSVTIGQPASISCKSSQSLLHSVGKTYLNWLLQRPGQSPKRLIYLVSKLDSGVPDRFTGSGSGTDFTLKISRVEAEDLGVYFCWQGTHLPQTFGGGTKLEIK
notes: Murine monoclonal antibody purified from hybridoma medium by protein G; also called anti-NGF antibody 43E5
B2: murine anti-human NGF monoclonal antibody 138E12 (antibody, V domains shown)
VH: QVQLKESGPGLVAPSQSLSITCTVSGFSLTGYGVNWVRQPPGKGLEWLGMIWFDGSTDYNSALKSRLSISKDNSKSQVFLKMNSLQTDDTARYYCAREGYYYGTTYYFDYWGQGTTLTVSS
VL: DIQMTQTTSSLSASLGDRVTISCRASQDISNYLNWYQQKPDGTVKLLIYYTSRLHSGVPSRFSGSGSGTDYSLTISNLEQEDIATYFCQQGNTLPRTFGGGTKLEIK
notes: Murine monoclonal antibody purified from hybridoma medium by protein G; also called anti-NGF antibody 138E12

Columns and labels:
[1] = biological target: T4, recombinant human NGF protein (human, UniProt P01138 122-241); assay: blocking ELISA, TrkA-Fc coated, antibody premixed with biotin-labeled human NGF
T4 construct: Bought protein; also called nerve growth factor; biotin-labeled human NGF
T4 sequence (P01138 122-241 limits assumed): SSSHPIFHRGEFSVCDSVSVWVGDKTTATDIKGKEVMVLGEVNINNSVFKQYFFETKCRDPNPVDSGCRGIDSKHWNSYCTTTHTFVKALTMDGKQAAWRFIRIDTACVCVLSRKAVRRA
Procedure: If the method of coated receptor TrkA is used for detection, 50 ng of NGF receptor TrkA protein (fused to human Fc) was coated in each well of a 96-well microtiter plate, washed three times, and then blocked with 3% BSA for 1 hour. […] 100 μl was taken and mixed with an equal volume of 1 μg/mL biotin-labeled human NGF, incubated at room temperature for 0.5 hours, and then added to an ELISA plate which has been washed with blocking solution. Incubated for 1 hour at room temperature and washed three times. Streptavidin-labeled HRP (Biolegend, 405210) was added, and incubated for 0.5 h and then washed three times. The microtiter plate was added with TMB, and read after the color development was terminated.

[2] = biological target: T4, recombinant human NGF protein; assay: BLI (ForteBio Octet Red96), biotin-NGF on SA sensor, antibody in solution
Text: The affinities of the antibodies were detected with Biomolecular Interaction Detection Platform (ForteBio Octet Red96 (PALL)). Biotin-labeled human NGF was immobilized by using SA (Streptavidin) Biosensor (Fortebio, 18-5021), and then conjugated with gradient concentrations of anti-NGF antibodies.

[3] = biological target: T4, recombinant human NGF protein; assay: cell-based or functional assay
human NT-4 = biological target: T1, human NT-4; assay: ELISA, plate coated with human NT-4 (50 ng per well), OD450
Procedure: (§1) The binding capacity of anti-NGF antibodies was investigated by using human NGF as an antigen (Beijing Yiqiao Shenzhou Technology Co., Ltd., 11050-HNAC). Each well of a 96-well microtiter plate was coated with 50 ng of human NGF, after washing and blocking, and then added with serially diluted antibodies, and incubated at room temperature for 1 hour. After washing three times, HRP-conjugated goat anti-mouse antibody (Biolegend, 405306) was added and incubated at room temperature for 1 hour. After washing three times, tetramethylbenzidine (TMB, Biolegend, 421101) was added for color development. 1M HC1 was used to terminate the color development, and the absorbance values were read at 450 nm with a microplate reader.
(§2) Each well of a 96-well microtiter plate was coated with 50 ng of human NGF (Beijing Yiqiao Shenzhou Technology Co., Ltd., 11050-HNAC), human BDNF (Beijing Yiqiao Shenzhou Technology Co., Ltd., 50240-MNAS), human NT-3 (Beijing Yiqiao Shenzhou Technology Co., Ltd., 10286-HNAE), or human NT-4 (Alomone, N-270). The bindings of the murine anti-NGF antibodies to human NGF and three homo-family proteins were detected according to the method described in Example 2.

[4] = biological target: T4, recombinant human NGF protein; assay: cell-based or functional assay; remark: listed apart in the source
[5] = biological target: T4, recombinant human NGF protein; assay: ELISA, human NGF coated
Procedure: as §1

[6] = biological target: T4, recombinant human NGF protein; assay: blocking ELISA, human NGF coated, antibody first, then TrkA-Fc
Procedure: If using the coated ligand NGF method for detection, each well of a 96-well microtiter plate was coated with 50 ng of human NGF and washed three times. […] 100 μL of 1 μg/mL TrkA fused to human Fc was added to each well, incubated for 1 hour at room temperature, and washed three times. HRP-conjugated donkey anti-human IgG antibody (Biolegend, 410902) was added and reacted for 1-hour at room temperature. After washing, add TMB to develop color, and read after the termination of development.

[7] = biological target: T4, recombinant human NGF protein; assay: cell-based or functional assay; remark: listed apart in the source
human BDNF = biological target: T2, human BDNF; assay: ELISA, plate coated with human BDNF (50 ng per well), OD450
Procedure: as §1, §2

human NT-3 = biological target: T3, human NT-3; assay: ELISA, plate coated with human NT-3 (50 ng per well), OD450
Procedure: as §1, §2

Row | Binder | IC50 [1] | Kd [2] | koff [2] | kon [2] | IC50 (row head prints EC50), inhibition of reporter gene expression in TrkA/NFAT-bla/CHO cells [3] | binding result (human NT-4) | IC50, inhibition of NGF-induced proliferation of TrkA/Ba/F3 cells [4] | EC50 [5] | IC50 [6] | IC50, inhibition of NGF-induced proliferation of TF-1 cell [7] | binding result (human BDNF) | binding result (human NT-3)
1 | B1 | 0.767 nM | < 0.001 nM | < 1e-07 s⁻¹ | 373000 M⁻¹ s⁻¹ | 0.0532 nM | no binding (tested: 66.67 nM) | 0.096 nM | 0.082 nM | 0.967 nM | 0.083 nM | no binding (tested: 66.67 nM) | no binding (tested: 66.67 nM)
2 | B2 | 0.677 nM | < 0.001 nM | < 1e-07 s⁻¹ | 634000 M⁻¹ s⁻¹ | 0.0442 nM | no binding (tested: 66.67 nM) | 0.098 nM | 0.1 nM | 0.865 nM | 0.077 nM | no binding (tested: 66.67 nM) | no binding (tested: 66.67 nM)
